Reference: patent US7455837B2, “Compositions and methods for the diagnosis and treatment of sepsis” (The Regents of the University of Michigan, priority 2002, dated 2008)
One block for each molecule: values may come before it.

Experiments:
mouse neutrophils [1] = test: Chemotaxis assay of mouse neutrophils to mC5a; assay type: cell-based
Procedure: Five hours later, mice were killed and the peritoneal cavity was lavaged four times with 10 mL DPBS. Fluids were centrifuged and residual red blood cells removed by a hypotonic lysis step. Remaining peritoneal cells were washed and resuspended in HBSS.
After neutrophil isolation, cells were fluorescein-labeled with BCECF (2′,7′-bis [2-carboxyethyl]-5-[and 6]-carboxy-fluorescein acetoxymethyl ester) (Molecular Probes, Eugene, Oreg.). Labeled neutrophils (5×10^6 cells/mL) were then loaded into the upper chambers of 96-well minichambers (NeuroProbe, Cabin John, Md.). […] The upper and lower chambers were separated by a polycarbonate membrane of 3 μm porosity. Minichambers were incubated for 60 min at 37° C. The number of cells migrating through polycarbonate filters to the lower surface was measured by cytofluorometry (Cytofluor II, PerSeptive Biosystems, Framingham, Mass.). For each measurement, quadruplicate samples were used.

mouse C5a receptor = molecular target: T1, mouse C5a receptor (mouse, UniProt P30993 1-351); test: competition of unlabeled mC5a with 100 pM 125I-mC5a on mouse peritoneal neutrophils, 20 min at 4 C
T1 construct: whole, on cells
T1 sequence (looked up): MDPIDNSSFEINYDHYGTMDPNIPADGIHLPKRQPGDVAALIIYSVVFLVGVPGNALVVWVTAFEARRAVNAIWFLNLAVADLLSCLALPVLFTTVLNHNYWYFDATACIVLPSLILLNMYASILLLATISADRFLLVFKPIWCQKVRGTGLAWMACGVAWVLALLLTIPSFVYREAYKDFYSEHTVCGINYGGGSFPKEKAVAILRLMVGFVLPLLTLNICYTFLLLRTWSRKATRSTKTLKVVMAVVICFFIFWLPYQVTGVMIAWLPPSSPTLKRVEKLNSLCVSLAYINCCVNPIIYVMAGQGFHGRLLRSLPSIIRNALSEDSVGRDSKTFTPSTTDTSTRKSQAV
Procedure: Isolated neutrophils were incubated for 1 h at 4° C. in binding buffer (HBSS without Ca^2+ and containing 1% BSA) to block nonspecific surface binding sites. […] After an incubation interval of 20 min at 4° C., cell suspensions were layered over 20% sucrose and sedimented by centrifugation at 11,000 g (Beckman Microfuge B, Palo Alto, Calif.) for 2 min. […] Binding affinities (K_d values) of C5a were calculated in the conventional manner (Chenoweth et al., (1978) *Proc. Natl. Acad. Sci. USA* 75,3943-3947). […]
Recent reports have described CSaRa binding affinities to rat and human neutrophils (Wong et al., (1998) *J. Med. Chem.* 41,3417-3425; Short et al., (1999) *Br. J. Pharmacol.* 128,511-514). To assess whether C5aRa also binds to mouse neutrophils, competitive binding studies using C5aRa and mC5a were undertaken.

[2] = molecular target: T2, C5aR on mouse peritoneal neutrophils (Mus musculus, UniProt P30993); test: Competitive binding of 125I-mC5a to mouse peritoneal neutrophils; details: recombinant protein
T2 construct: Mice were injected i.p. with 2.5 mL sterile 3% thioglycolate medium (DIFCO Laboratories, Detroit, Mich.) for harvesting of mouse neutrophils; endogenous in cells; host or cells: mouse peritoneal neutrophils (thioglycolate-elicited, whole cells)
T2 sequence (P30993 1-351): T1 sequence (looked up)
Procedure: (§1) Mice were injected i.p. with 2.5 mL sterile 3% thioglycolate medium (DIFCO Laboratories, Detroit, Mich.) for harvesting of mouse neutrophils (Ajuebor et al., (1999) J. Immunol. 162,1685-1691). Five hours later, mice were killed and the peritoneal cavity was lavaged four times with 10 mL DPBS. Fluids were centrifuged and residual red blood cells removed by a hypotonic lysis step. Remaining peritoneal cells were washed and resuspended in HBSS. Aliquots of cells were stained with Diff-Quik Stain (Dade International, Miami, Fla.) and examined for neutrophil purity (>95%) and viability (>97%) by trypan blue exclusion (Fildes et al., (1998) J. Trauma 45,479-484).
For binding studies, mC5a was labeled with […], using the chloramine T-based protocol (Bennett et al., (1997) Methods Enzymol. 288,134-148) with gentle oxidation, which preserves chemotactic activity of mC5a for mouse neutrophils. Isolated neutrophils were incubated for 1 h at 4° C. in binding buffer (HBSS without Ca^2+ and containing 1% BSA) to block nonspecific surface binding sites. […] Binding affinities (Kd values) of C5a were calculated in the conventional manner (Chenoweth et al., (1978) Proc. Natl. Acad. Sci. USA 75,3943-3947). […]

mouse neutrophils [3] = test: Neutrophil oxidative burst (H2O2 generation, PMA-stimulated); assay type: cell-based
Procedure: as §1
H2O2 generation was determined in the presence of 1 mM sodium azide. As indicated, mouse neutrophils (2×10^6 cells/mL) were pretreated with mC5a (10 nM) for 60 min at 37° C. in the presence or absence of different amounts of C5aRa. To stimulate neutrophils, cells were then incubated with PMA (25 ng/mL) for an additional 10 min. The reaction was stopped by addition of 0.1 mL trichloroacetic acid (50% v/v), then ferrous ammonium sulfate (1.5 mM) and potassium thiocyanate (0.25 M) were added to supernatant fluids. The absorbance of the ferrithiocyanate complex was measured at 480 nm and compared with a standard curve generated from dilutions of reference solutions of H2O2.

Molecule: ^125I-C5aRa: C5aRa labeled with 125I by the chloramine T method (FXPXWR; non-natural residues; cyclised or stapled) [reference compound]
chemotactic response to mC5a in presence of radiolabeled antagonist (mouse neutrophils [1]; 10 nM 125I-C5aRa, mC5a 1-100 nM): virtually completely suppressed

Kd (mouse C5a receptor): ~3 nM
B1: recombinant mouse C5a (ligand, UniProt P06684 679-755, looked up)
chain: NLHLLRQKIEEQAAKYKHSVPKKCCYDGARVNFYETCEERVARVTIGPLCIRAFNECCTIANKIRKESPHKPVQLGR
modifications: 125I label (chloramine T) on the tracer form only; the competitor was unlabeled
notes: domain: C5a; Expressed in E. coli BL21(DE3) pLysS from pET 15b (NdeI/BamHI) and purified over a Ni2+ column; C5a is only a fragment of it; also called mC5a; recombinant mouse (m) C5a

binding to mouse neutrophils [2]: high-affinity binding
B2: mC5a: recombinant mouse C5a expressed in BL21 (DE3) pLysS cells, purified over a Ni2+ column (protein)
chain: B1 chain
chemotactic response evoked by the substance alone (mouse neutrophils [1]; 10 nM): robust chemotactic response
biological (chemotactic) activity (mouse neutrophils [1]; recombinant protein): had biological (chemotactic) activity
basal H2O2 production vs ctrl cells (mouse neutrophils [3]; 10 nM alone, 60 min at 37° C., no PMA): neither mC5a alone nor C5aRa alone significantly altered
PMA-stimulated H2O2 production after exposure to mC5a (mouse neutrophils [3]; 10 nM mC5a 60 min, absence of C5aRa, then PMA 25 ng/mL): completely abolished
